Experimental data published in paper PMC5688128, “Structural basis for tRNA-dependent cysteine biosynthesis” (Nature Communications, 2017).

B1: O-phosphoseryl-tRNA synthetase (SepRS), Methanocaldococcus jannaschii (enzyme)
chain: MRFDIKKVLELAEKDFETAWRETRALIKDKHIDNKYPRLKPVYGKPHPVMETIERLRQAYLRMGFEEMINPVIVDEMEIYKQFGPEAMAVLDRCFYLAGLPRPDVGLGNEKVEIIKNLGIDIDEEKKERLREVLHLYKKGAIDGDDLVFEIAKALNVSNEMGLKVLETAFPEFKDLKPESTTLTLRSHMTSGWFITLSSLIKKRKLPLKLFSIDRCFRREQREDRSHLMSYHSASCVVVGEDVSVDDGKVVAEGLLAQFGFTKFKFKPDEKKSKYYTPETQTEVYAYHPKLGEWIEVATFGVYSPIALAKYNIDVPVMNLGLGVERLAMIIYGYEDVRAMVYPQFYEYRLSDRDIAGMIRVDKVPILDEFYNFANELIDICIANKDKESPCSVEVKREFNFNGERRVIKVEIFENEPNKKLLGPSVLNEVYVYDGNIYGIPPTFEGVKEQYIPILKKAKEEGVSTNIRYIDGIIYKLVAKIEEALVSNVDEFKFRVPIVRSLSDINLKIDELALKQIMGENKVIDVRGPVFLNAKVEIK
notes: O-phosphoseryl-tRNA synthetase (SepRS) of Methanocaldococcus jannaschii; wild type; source: E. coli B834(DE3) plus pRARE2, purified (heat treatment 75 °C, HisTrap, Heparin, Superdex 200)
B2: Sep-tRNA:Cys-tRNA synthase (SepCysS), Methanocaldococcus jannaschii (enzyme)
chain: DKYKNLTRSLTREFINLNPIQRGGILPKEAKKAVYEYWDGYSVCDYCHGRLDEVTCPPIKDFLEDIAKFLNMDCARPTHGAREGKFIVMHAICKEGDYVVLDKNAHYTSYVAAERAKLNVAEVGYEEEYPTYKINLEGYKEVIDNLEDKGKNVGLILLTHVDGEYGNLNDAKKVGKIAKEKGIPFLLNCAYTVGRMPVNGKEVKADFIVASGHKSMAASAPCGILAFSEEFSDKITKTSEKFPVKEIEMLGCTSRGLPIVTLMASFPHVVERVKKWDEELKKTRYVVDELEKIGFKQLGIKPKEHDLIKFETPVLDEIAKKDKRRGFFFYDELKKRGIGGIRAGVTKEIKMSVYGLEWEQVEYVVNAIKEIVESCK
modifications: PLP covalently bound to the side chain of Lys234
notes: Sep-tRNA:Cys-tRNA synthase (SepCysS) of Methanocaldococcus jannaschii; wild type; large domain Gly43-Lys295, small domain Trp296-Lys396; Homodimer
B3: SepCysE (SepRS/SepCysS pathway enhancer), Methanocaldococcus jannaschii (natural protein)
chain: MRVEYSKDLIRKGISTISQLKKAKIRVEKDDKKISYKDAKPGKIDVNEFKKAIYLLIEADDFLYKKAPKHELNEEEAKEFCKLIIKCQEHLNKILANFGFEFEEKEIDEGALYIVSNKKLFKKLKNKNPNLKVVCTEGMLDIEDMRAIGVPEKALEGLKKKVEIARKNVERFIEKYKPEKIFVVVEDDKDELLYLRAKNLYNAEKLDADEILD
notes: SepCysE of Methanocaldococcus jannaschii; wild type
B4: CTD-truncated SepCysE of M. jannaschii (domain or fragment, Methanocaldococcus jannaschii, UniProt Q58876 1-110, looked up)
chain: MRVEYSKDLIRKGISTISQLKKAKIRVEKDDKKISYKDAKPGKIDVNEFKKAIYLLIEADDFLYKKAPKHELNEEEAKEFCKLIIKCQEHLNKILANFGFEFEEKEIDEG
notes: also called SepCysE(CTD)-truncated; source: E. coli B834(DE3) plus pRARE2, purified within the transsulfursome (same procedure as the wild type)
B5: SepCysE(del_linker1) of M. jannaschii, 10 residues of linker1 truncated (natural protein, Methanocaldococcus jannaschii)
chain: MRVEYSKDLIRKGISTISQLKKAKSYKDAKPGKIDVNEFKKAIYLLIEADDFLYKKAPKHELNEEEAKEFCKLIIKCQEHLNKILANFGFEFEEKEIDEGALYIVSNKKLFKKLKNKNPNLKVVCTEGMLDIEDMRAIGVPEKALEGLKKKVEIARKNVERFIEKYKPEKIFVVVEDDKDELLYLRAKNLYNAEKLDADEILD
notes: source: E. coli B834(DE3) plus pRARE2, purified within the transsulfursome (same procedure as the wild type)

Columns and labels:
[1] = molecular target: T1, SepRS (SepRS-SepCysE-SepCysS ternary complex, transsulfursome) (Methanocaldococcus jannaschii, UniProt Q59054); experiment: X-ray crystal structure, […] Å; format: binding; conditions: 10 mM ATP in crystallisation, pH 7.0; active site, Arg228, Glu230, His237, Tyr240; bent ATP
T1 construct: gene sepS; recombinant from E. coli B834(DE3), pET-15b; SepRS tetramer; only SepRS and SepCysE N-helix (Met1-Lys24) visible; with SepRS/SepCysS pathway enhancer SepCysE; O-phospho-L-seryl-tRNA:Cys-tRNA synthase

[2] = molecular target: T2, SepCysS (SepCysE-SepCysS-tRNA^Cys complex) (Methanocaldococcus jannaschii, UniProt Q59072); experiment: X-ray crystal structure, […] Å; format: binding; conditions: covalent; Lys234; crystallised at pH 5.0 with tRNA^Cys
T2 construct: gene pscS; recombinant, coexpressed with SepCysE in E. coli B834(DE3); SepCysS homodimer; co-crystal with tRNA^Cys; with SepRS/SepCysS pathway enhancer SepCysE

[3] = molecular target: the molecule itself; experiment: crystal structure; 50 μM SepRS-SepCysE-SepCysS(del_RRF), 30 μM tRNA^Cys, 10 mM ATP; 0.1 M Tris-HCl pH 7.0, 0.3 M ammonium sulfate, 36% MPD; 3.10 Å; only SepRS and the N-helix of SepCysE visible; PDB 5X6C
[4] = molecular target: the molecule itself; experiment: crystal structure; SepCysE-SepCysS mixed with tRNA^Cys at a molar ratio of 1:1.2, protein 16 mg/ml; 0.1 M MES pH 5.0, 2.4 M ammonium sulfate; 2.6 Å; PDB 5X6B
[5] = molecular target: B1; experiment: negative stain electron microscopy; purified wild type and del_linker1 transsulfursome adsorbed on carbon-coated grids; 20 mM HEPES-KOH pH 8.0, 200 mM KCl, 5 mM MgCl2; uranyl formate; class averaging; conditions: both partners purified
[6] = molecular target: B1; experiment: SEC-SAXS; SepCysE(CTD)-truncated transsulfursome in solution; Superdex 200 Increase 10/300 GL, room temperature; scattering compared with models from the crystal structures; conditions: both partners purified

T2 sequence (Q59072 whole entry, one chain of several): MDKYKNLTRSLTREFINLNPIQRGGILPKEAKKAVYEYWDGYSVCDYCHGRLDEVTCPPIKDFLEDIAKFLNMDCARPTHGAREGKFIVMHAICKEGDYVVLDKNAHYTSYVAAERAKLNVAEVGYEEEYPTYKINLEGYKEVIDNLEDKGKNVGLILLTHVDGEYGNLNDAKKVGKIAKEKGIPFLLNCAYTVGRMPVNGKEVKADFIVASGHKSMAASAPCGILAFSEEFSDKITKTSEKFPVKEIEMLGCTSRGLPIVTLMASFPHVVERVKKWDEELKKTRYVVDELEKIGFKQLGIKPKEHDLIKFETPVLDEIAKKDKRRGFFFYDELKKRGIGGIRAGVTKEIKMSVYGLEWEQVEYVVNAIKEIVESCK

## Nc1ncnc2c1ncn2[C@@H]1O[C@H](COP(=O)(O)OP(=O)(O)OP(=O)(O)O)[C@@H](O)[C@H]1O [ATP]
[1]
  X-ray crystal structure, 3.1 Å: ATP was observed in the active sites of SepRS.

## Cc1ncc(COP(=O)(O)O)c(C=O)c1O [pyridoxal-5′-phosphate]
[2]
  X-ray crystal structure, 2.6 Å: PLP was covalently bound to the side chain of the conserved Lys234

## B1
[3]
  stoichiometry N: 4

## B2
[4]
  stoichiometry N: 2

## B3
[4]
  stoichiometry N: 2
[5]
  binding result: binds

## B4
[6]
  binding result: binds

## B5
[5]
  binding result: binds
